Consider 1 molecule from paper PMC4990422, “Coupling between the DEAD-box RNA helicases Ded1p and eIF4A” (eLife, 2016).

Assay [1] concerns the target T1, eIF4G (S. cerevisiae, UniProt P39935 1-952; P07260 1-213).
T1 construct: eIF4G1, scaffolding protein of translation initiation, S. cerevisiae; present in the preparations of eIF4G; the model treats G as one unit; also called eIF4G1; S•Tag-eIF4G; source: recombinant, expression and purification previously described (Hilliker et al., 2011)
T1 sequence (looked up) 1: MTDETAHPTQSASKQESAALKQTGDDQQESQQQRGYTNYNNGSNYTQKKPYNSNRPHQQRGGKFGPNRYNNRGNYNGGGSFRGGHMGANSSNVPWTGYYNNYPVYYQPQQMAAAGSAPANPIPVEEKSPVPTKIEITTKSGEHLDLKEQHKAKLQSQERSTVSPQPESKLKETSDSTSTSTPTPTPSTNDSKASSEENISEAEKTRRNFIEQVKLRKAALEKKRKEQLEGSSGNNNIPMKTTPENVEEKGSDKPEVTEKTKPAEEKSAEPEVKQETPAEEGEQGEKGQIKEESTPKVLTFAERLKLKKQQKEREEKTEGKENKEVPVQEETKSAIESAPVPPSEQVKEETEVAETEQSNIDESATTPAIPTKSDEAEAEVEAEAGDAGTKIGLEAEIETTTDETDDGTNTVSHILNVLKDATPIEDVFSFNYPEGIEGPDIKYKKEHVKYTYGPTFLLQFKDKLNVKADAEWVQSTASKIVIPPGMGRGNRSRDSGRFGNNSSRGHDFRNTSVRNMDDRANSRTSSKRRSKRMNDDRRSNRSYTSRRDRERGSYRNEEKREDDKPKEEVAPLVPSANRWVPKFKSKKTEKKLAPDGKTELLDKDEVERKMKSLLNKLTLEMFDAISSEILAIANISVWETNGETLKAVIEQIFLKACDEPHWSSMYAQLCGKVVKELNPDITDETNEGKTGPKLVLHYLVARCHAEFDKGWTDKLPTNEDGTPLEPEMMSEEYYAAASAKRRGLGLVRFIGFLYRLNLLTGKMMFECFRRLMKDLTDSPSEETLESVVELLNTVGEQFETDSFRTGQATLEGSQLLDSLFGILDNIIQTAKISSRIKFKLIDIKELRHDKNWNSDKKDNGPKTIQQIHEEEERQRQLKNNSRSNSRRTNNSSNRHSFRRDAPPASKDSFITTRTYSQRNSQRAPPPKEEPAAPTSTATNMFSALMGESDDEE
T1 sequence (looked up) 2: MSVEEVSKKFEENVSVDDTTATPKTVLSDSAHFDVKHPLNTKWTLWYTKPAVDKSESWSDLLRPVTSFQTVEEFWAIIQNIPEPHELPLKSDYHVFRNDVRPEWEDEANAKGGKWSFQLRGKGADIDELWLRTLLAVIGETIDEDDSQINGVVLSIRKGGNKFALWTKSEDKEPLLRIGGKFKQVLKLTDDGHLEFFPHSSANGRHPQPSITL
Briefly: global fit of RNA unwinding time courses to a thermodynamic model; K1/2 of a binding step calculated with the model of Figure 4A; RNA bound to the binder before the step, no ATP. Conditions: both partners purified.

Assay [2] concerns the target T2, Ded1p-eIF4G complex (S. cerevisiae, UniProt P06634 1-604; P39935 1-952; P07260 1-213).
T2 construct: Ded1p, S. cerevisiae, wild type, as Wm1; eIF4G1, S. cerevisiae, as in Wm3; eIF4E, S. cerevisiae, as in Wm3; present in the preparations of eIF4G; State of the thermodynamic model; also called DG; DTG; source: formed from the purified recombinant proteins; copies: + +
The description is as above. Conditions: both partners purified.

Assay [3] concerns the target T1, eIF4G. Briefly: global fit of RNA unwinding time courses to a thermodynamic model; K1/2 of a binding step calculated with the model of Figure 4A; RNA bound to the target before the step, no ATP. As to conditions: both partners purified.
Assay [4] concerns the target T2, Ded1p-eIF4G complex. The description is as above. As to conditions: both partners purified.
Assay [5] addresses T1, eIF4G. Description: global fit of RNA unwinding time courses to a thermodynamic model; K1/2 of a binding step calculated with the model of Figure 4A; RNA bound to the binder before the step, ATP bound to eIF4A. As to conditions: both partners purified.
Assay [6] addresses T1, eIF4G. Briefly: global fit of RNA unwinding time courses to a thermodynamic model; K1/2 of a binding step calculated with the model of Figure 4A; RNA bound to the target before the step, ATP bound to eIF4A. As to conditions: both partners purified.
In assay [7] the target is T2, Ded1p-eIF4G complex. The assay is described as above. As to conditions: both partners purified.
In assay [8] the target is HA-tagged Ded1p (His6-Ded1p-HA3) (S. cerevisiae), P06634. Briefly: pull-down; Ded1p-HA held on anti-HA antibody and Protein G Dynabeads; 300 nM S•Tag-eIF4G or 1500 nM eIF4A added alone; 20 µg/mL RNases A,B; 8°C overnight; washed with HRB-Na100 buffer; Western blot. Conditions: remark: other sources report otherwise. On the technique in general: In western blotting, separated proteins are transferred to a membrane and probed.
Chain of HA-tagged Ded1p (His6-Ded1p-HA3) (S. cerevisiae), P06634 (P06634 whole entry): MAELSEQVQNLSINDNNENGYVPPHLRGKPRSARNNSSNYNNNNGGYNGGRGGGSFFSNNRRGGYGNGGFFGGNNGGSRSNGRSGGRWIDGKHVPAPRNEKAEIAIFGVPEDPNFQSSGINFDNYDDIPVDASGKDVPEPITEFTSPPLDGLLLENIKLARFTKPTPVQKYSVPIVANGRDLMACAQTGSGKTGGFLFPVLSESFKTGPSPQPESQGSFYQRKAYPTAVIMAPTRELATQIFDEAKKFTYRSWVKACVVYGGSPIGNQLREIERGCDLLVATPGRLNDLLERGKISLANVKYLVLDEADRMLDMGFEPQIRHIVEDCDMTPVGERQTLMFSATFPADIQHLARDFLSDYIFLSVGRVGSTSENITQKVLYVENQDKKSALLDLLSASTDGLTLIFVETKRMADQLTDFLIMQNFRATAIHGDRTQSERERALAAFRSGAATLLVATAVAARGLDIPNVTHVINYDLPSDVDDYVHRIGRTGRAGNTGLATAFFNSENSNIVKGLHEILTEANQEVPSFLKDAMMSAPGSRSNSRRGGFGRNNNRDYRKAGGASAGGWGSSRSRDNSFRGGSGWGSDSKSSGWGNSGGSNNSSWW

For assay [9], the target named is T2, Ded1p-eIF4G complex. Briefly: global fit of RNA unwinding time courses to a thermodynamic model; K1/2 of a binding step calculated with the model of Figure 4A; RNA bound to the binder before the step, ATP bound to Ded1p and to eIF4A. Conditions: both partners purified.
Assay [10] concerns the target HA-tagged Ded1p (His6-Ded1p-HA3) (S. cerevisiae), P06634. Description: pull-down; Ded1p-HA held on anti-HA antibody and Protein G Dynabeads; 300 nM S•Tag-eIF4G and 1500 nM eIF4A added together; 20 µg/mL RNases A,B; 8°C overnight; washed with HRB-Na100 buffer; Western blot. Conditions: remark: other sources report otherwise.

T2 sequence (P06634 whole entry, one chain of several): as the sequence (P06634 whole entry) above

B1: eIF4A (enzyme, S. cerevisiae, UniProt P10081 1-395, looked up)
chain: MSEGITDIEESQIQTNYDKVVYKFDDMELDENLLRGVFGYGFEEPSAIQQRAIMPIIEGHDVLAQAQSGTGKTGTFSIAALQRIDTSVKAPQALMLAPTRELALQIQKVVMALAFHMDIKVHACIGGTSFVEDAEGLRDAQIVVGTPGRVFDNIQRRRFRTDKIKMFILDEADEMLSSGFKEQIYQIFTLLPPTTQVVLLSATMPNDVLEVTTKFMRNPVRILVKKDELTLEGIKQFYVNVEEEEYKYECLTDLYDSISVTQAVIFCNTRRKVEELTTKLRNDKFTVSAIYSDLPQQERDTIMKEFRSGSSRILISTDLLARGIDVQQVSLVINYDLPANKENYIHRIGRGGRFGRKGVAINFVTNEDVGAMRELEKFYSTQIEELPSDIATLLN
notes: eIF4A, DEAD-box RNA helicase, S. cerevisiae, wild type; also called wild-type yeast eIF4A; source: recombinant, purified as described (Hilliker et al., 2011)
By Kd is commonly meant the concentration at which binding is half-saturated. Regarding B1, the Kd is 25 nM in assay [1]; 0.003 nM in assay [2]; 1060 nM in [3]; 7 nM in [4]; 49 nM in [5]; 2100 nM in assay [6]. Further, the Kd is 14 nM in [7] and 0.013 nM in assay [9]. The relative band intensity (pull-down compared to input) in assay [8] is 96%. Moreover, the relative band intensity (pull-down compared to input), with eIF4G present in [10] came out at 25%.
